Experimental findings from patent CN105524169A (UNIV NANCHANG, dated 2016) are described below.

The target in experiment [1] is T1, PSMA胞外区蛋白 (recombinant extracellular region of prostate specific membrane antigen, expressed in HEK-293) (UniProt Q04609 44-750, limits assumed).
T1 construct: extracellular domain; also called 前列腺特异性膜抗原膜外区; PSMA蛋白
In words: indirect phage ELISA, PSMA extracellular region protein coated at 5 μg/mL, HRP-anti-M13 detection.

Experiment [2] concerns the target T2, PSMA on LNCaP prostate cancer cells (UniProt Q04609 1-750, limits assumed).
T2 construct: whole, on cells; Cells fixed with 4% paraformaldehyde before the assay; also called 前列腺特异性膜抗原; LNCaP细胞(表达PSMA)
In words: cell ELISA on fixed LNCaP (PSMA+) against MKN45 (PSMA-) cells, HRP-anti-M13, OD450.

T1 sequence (Q04609 44-750 limits assumed): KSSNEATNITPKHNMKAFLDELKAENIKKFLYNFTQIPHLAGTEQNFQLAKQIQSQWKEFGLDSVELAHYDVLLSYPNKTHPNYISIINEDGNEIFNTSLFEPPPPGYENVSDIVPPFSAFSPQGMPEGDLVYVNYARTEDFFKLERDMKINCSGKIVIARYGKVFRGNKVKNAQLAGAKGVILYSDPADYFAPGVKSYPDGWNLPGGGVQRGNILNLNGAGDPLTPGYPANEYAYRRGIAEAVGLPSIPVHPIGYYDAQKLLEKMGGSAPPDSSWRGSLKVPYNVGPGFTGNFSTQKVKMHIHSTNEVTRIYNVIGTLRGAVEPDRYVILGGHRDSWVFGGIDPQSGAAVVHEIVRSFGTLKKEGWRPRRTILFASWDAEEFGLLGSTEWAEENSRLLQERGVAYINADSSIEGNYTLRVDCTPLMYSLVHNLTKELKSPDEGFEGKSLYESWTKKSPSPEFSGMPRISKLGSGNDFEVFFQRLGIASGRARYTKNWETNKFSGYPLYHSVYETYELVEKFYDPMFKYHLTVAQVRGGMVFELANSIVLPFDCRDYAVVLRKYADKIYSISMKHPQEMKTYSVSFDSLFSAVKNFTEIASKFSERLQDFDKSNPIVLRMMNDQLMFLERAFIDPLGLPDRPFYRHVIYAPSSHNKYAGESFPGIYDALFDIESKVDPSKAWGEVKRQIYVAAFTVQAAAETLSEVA
T2 sequence (Q04609 whole entry): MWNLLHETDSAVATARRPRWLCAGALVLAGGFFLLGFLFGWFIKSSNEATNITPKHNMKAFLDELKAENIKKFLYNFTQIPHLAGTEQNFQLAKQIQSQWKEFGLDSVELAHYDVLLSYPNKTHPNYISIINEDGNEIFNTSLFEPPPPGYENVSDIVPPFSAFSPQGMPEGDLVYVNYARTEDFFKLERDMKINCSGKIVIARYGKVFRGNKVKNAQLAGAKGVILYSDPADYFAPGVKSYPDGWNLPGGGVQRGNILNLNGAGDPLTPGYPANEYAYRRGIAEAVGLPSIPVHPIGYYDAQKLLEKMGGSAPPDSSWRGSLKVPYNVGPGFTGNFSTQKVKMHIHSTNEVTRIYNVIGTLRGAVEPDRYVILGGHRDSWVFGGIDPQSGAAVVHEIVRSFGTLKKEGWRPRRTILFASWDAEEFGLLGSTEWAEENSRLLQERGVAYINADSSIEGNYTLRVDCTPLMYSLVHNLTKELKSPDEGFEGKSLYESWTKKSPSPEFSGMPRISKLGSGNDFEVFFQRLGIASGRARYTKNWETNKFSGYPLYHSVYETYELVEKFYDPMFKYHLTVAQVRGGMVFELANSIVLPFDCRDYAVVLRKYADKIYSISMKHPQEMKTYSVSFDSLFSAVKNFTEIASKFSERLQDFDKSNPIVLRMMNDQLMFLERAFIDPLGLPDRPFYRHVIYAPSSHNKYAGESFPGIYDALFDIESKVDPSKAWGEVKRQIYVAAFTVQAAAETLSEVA

B1: 抗前列腺特异性膜抗原单域重链抗体噬菌体阳性克隆 (phage clone displaying the anti-PSMA single-domain heavy-chain antibody) (VHH)
VHH: QVQLVESGGGLVQAGGSLRLSCAASGRTISRYAVGWFRQAPGKDREFVAGITRSSSLTGYTDSVKGRFTISRDNAENTVYLQMNSLKPEDTAVYYCAGGPGSYKYWGKGTQVTVSS
notes: detected with anti-M13 antibodies; also called 展示本发明所述纳米抗体的噬菌体克隆; not shown: hinge/linker and coat protein fusion are not described
Take B1: the binding result in experiment [1] and in experiment [2] was “binds” each time.
